{"source": "patent US20230183338A1", "biological_target": "VEEV p62-E1 (Venezuelan equine encephalitis virus, TrD strain) (UniProt P09592)", "assay": "surface plasmon resonance (Biacore T200), […]"}
{"substance": "HRV-cleaved monovalent LDLRAD3(D1) (from UniProt A2AR95 18-70) (receptor)", "values": [{"measurement": "Kd", "result": 0.209, "unit": "µM"}]}
